Residue numbers refer to the chain shown, from its start. Where no end group is shown, it is not given here.
B1: human REV-ERBβ ligand-binding domain (residues 381 to 579) (domain or fragment, UniProt Q14995 381-579, looked up)
chain: HLVCPMSKSPYVDPHKSGHEIWEEFSMSFTPAVKEVVEFAKRIPGFRDLSQHDQVNLLKAGTFEVLMVRFASLFDAKERTVTFLSGKKYSVDDLHSMGAGDLLNSMFEFSEKLNALQLSDEEMSLFTAVVLVSADRSGIENVNSVEALQETLIRALRTLIMKNHPNEASIFTKLLLKLPDLRSLNNMHSEELLAFKVHP
notes: cloned into pET46; Used ligand-free (apo) or loaded with heme (a small molecule; 1.05 to 2 molar equivalents); the two states are told apart by the assays; also called REV-ERBβ LBD; LBD; source: E. coli BL21(DE3), purified (IMAC, 3C protease cleavage, size exclusion); 15N-labelled in M9 minimal media for NMR; not shown: 6xHis, N-terminal, cleaved
B2: REV-ERBβ: full-length human REV-ERBβ expressed from pcDNA3.1 vector in HEK293T cells (protein)
chain: B1 chain
modifications: left off: 6xHis, N-terminal, cleaved
notes: full-length human REV-ERBβ expressed from pcDNA3.1 vector in HEK293T cells
B3: NCoR ID2 peptide (peptide)
peptide: DPASNLGLEDIIRKALMGSFDDK
modifications: not fully specified
notes: source: synthetic peptide, bought: LifeTein
B4: NCoR ID1 peptide (peptide)
peptide: RTHRLITLADHICQIITQDFARN
modifications: not fully specified
notes: as for B3
B5: mouse NCoR RID ΔID2 mutant (domain or fragment)
chain: QVPRTHRLITLADHICQIITQDFARNQVPSQASTSTFQTSPSALSSTPVRTKTSSRYSPESQSQTVLHPRPGPRVSPENLVDKSRGSRPGKSPERSHIPSEPYEPISPPQGPAVHEKQDSMLLLSQRGVDPAEQRSDSRSPGSISYLPSFFTKLESTSPMVKSKKQEIFRKLNSSGGGDSDMAAAQPGTEIFNLPAVTTSGAVSSRSHSFADPASNLGTEDTTRKALMGSFDDKVEDHGVVMSHPVGIMPGSASTSVVTSSEARRDE
B6: mouse NCoR receptor interaction domain (residues 1942 to 2208 in the X50 splice variant), wild type (domain or fragment)
chain: B5 chain with T219L, T222I, T223I

Assays:
[1] = molecular target: B4; test: ITC; apo LBD (500 μM, syringe) titrated into ID peptide (50 μM, cell); 25°C; 20 mM Hepes pH 7.4, 50 mM KCl, 0.5 mM EDTA, 5 mM TCEP; A + B ↔ AB model in SEDPHAT; conditions: both partners purified
[2] = molecular target: B3; test: as above; conditions: both partners purified
[3] = molecular target: B6; test: ITC; apo LBD (300 μM, syringe; for WT RID 2 × 20 injections of 150 μM) titrated into RID construct (15 μM, cell); 25°C; Hepes assay buffer; WT RID fit to two nonsymmetric sites, microscopic K model; ΔID2 fit to A + B ↔ AB; conditions: both partners purified
[4] = molecular target: B5; test: as above; conditions: both partners purified
[5] = molecular target: B4; test: ITC; heme-bound LBD (500 μM with 1.05 molar equivalents of heme, syringe) titrated into ID peptide (50 μM, cell); 25°C; 20 mM Hepes pH 7.4, 50 mM KCl, 0.5 mM EDTA, 5 mM TCEP; A + B ↔ AB model in SEDPHAT; conditions: both partners purified
[6] = molecular target: B3; test: as above; conditions: both partners purified
[7] = molecular target: B6; test: ITC; heme-bound LBD (300 μM, syringe) titrated into RID construct (15 μM, cell), 4 molar equivalents; 25°C; Hepes assay buffer; WT RID fit to A + B ↔ AB; conditions: both partners purified
[8] = molecular target: B6; test: ITC; apo LBD (300 μM, syringe; for WT RID 2 × 20 injections of 150 μM) titrated into RID construct (15 μM, cell); 25°C; Hepes assay buffer; WT RID fit to two nonsymmetric sites, microscopic K model; ΔID2 fit to A + B ↔ AB; conditions: both partners purified
[9] = molecular target: B6; test: ITC; heme-bound LBD (300 μM, syringe) titrated into RID construct (15 μM, cell), 4 molar equivalents; 25°C; Hepes assay buffer; WT RID fit to A + B ↔ AB; conditions: both partners purified
[10] = system: Bmal1 REV-RE promoter luciferase in HEK293T cells; test: Bmal1-luciferase transcriptional repression assay; format: cell-based, human; conditions: for fold repression of Bmal1-luciferase: HEK293T, 24 hours, relative to empty vector, n = 3 independent experiments
Excerpt: The human REV-ERBβ LBD (residues 381 to 579) was previously cloned into the pET46 vector ([18]). The mouse NCoR RID (residues 1942 to 2208 in the X50 splice variant), which has 87% sequence identity to human NCoR RID (100% sequence identity in the ID motifs), was previously cloned into the pET32 vector ([29]). NCoR RID mutants were generated by site-directed mutagenesis: The ID1 CoRNR box motif was mutated from […] to […] (ΔID1 and ΔID1ΔID2), and the ID2 CoRNR box motif was mutated from LEDIIRKAL to TEDTTRKAL (ΔID2 and ΔID1ΔID2), as these mutations were previously reported to disrupt CoRNR box binding ([10], [30]). Heme (Sigma-Aldrich, no. 51280) was prepared either as a 1 mM stock in dimethyl sulfoxide (DMSO) stored at 4°C or 50 mM stock in 0.2 M NaOH (solutions prepared in 0.2 M NaOH were always made fresh immediately before the experiment), where indicated. […] Human embryonic kidney (HEK) 293T cells (American Type Culture Collection, no. CRL-11268) were cultured in Dulbecco’s modified eagle medium (DMEM) supplemented with 10% fetal bovine serum, 2 mM L-glutamine, and 1% penicillin-streptomycin at 37°C and 5% CO2 under standard culture conditions. The pcDNA3.1^+ expression vector containing full-length human REV-ERBβ ([31]) and the pGL3-Bmal1-luciferase construct containing the Bmal1 promoter (−816 to +99 of the mouse Bmal1 promoter region) were used in HEK293T cell transfections. […]
HEK293T cells were plated at 1.5 × 10^3 cells per well in 96-well flat-bottom plates in DMEM 24 hours before transfection. […] Luciferase activity was harvested 24 hours after transfection with Britelite Plus (PerkinElmer) and read using a BioTek Synergy plate reader. Raw luminescence values of REV-ERBβ–transfected wells were normalized to pcDNA3.1 empty vector transfection wells individually for each Bmal1-luciferase construct to determine fold repression by REV-ERBβ for each Bmal1-luciferase construct. […]

[11] = molecular target: B1; test: ITC; apo LBD (500 μM, syringe) titrated into ID peptide (50 μM, cell); 25°C; 20 mM Hepes pH 7.4, 50 mM KCl, 0.5 mM EDTA, 5 mM TCEP; A + B ↔ AB model in SEDPHAT; conditions: both partners purified
[12] = molecular target: B1; test: ITC; heme-bound LBD (500 μM with 1.05 molar equivalents of heme, syringe) titrated into ID peptide (50 μM, cell); 25°C; 20 mM Hepes pH 7.4, 50 mM KCl, 0.5 mM EDTA, 5 mM TCEP; A + B ↔ AB model in SEDPHAT; conditions: both partners purified
[13] = molecular target: B1; test: ITC; apo LBD (300 μM, syringe; for WT RID 2 × 20 injections of 150 μM) titrated into RID construct (15 μM, cell); 25°C; Hepes assay buffer; WT RID fit to two nonsymmetric sites, microscopic K model; ΔID2 fit to A + B ↔ AB; conditions: both partners purified
[14] = molecular target: B1; test: ITC; heme-bound LBD (300 μM, syringe) titrated into RID construct (15 μM, cell), 4 molar equivalents; 25°C; Hepes assay buffer; WT RID fit to A + B ↔ AB; conditions: both partners purified

Molecule: B1
dH [1]: -7.7 kcal/mol
dH [2]: -9.7 kcal/mol
KD site 1 [3]: 12 nM
KD site 2 [3]: 740 nM
dH site 1 [3]: -8.3 kcal/mol
dH site 2 [3]: 3.2 kcal/mol
dH [4]: -9.4 kcal/mol
dH [5]: 1.7 kcal/mol
dH [6]: 3 kcal/mol
stoichiometry N [7]: ~2 LBD per RID
stoichiometry N [8]: 2 LBD per RID
dH [9]: 1.7 kcal/mol

Molecule: B2
fold repression of Bmal1-luciferase ([10]; WT Bmal1 construct): approximately ninefold
fold repression of Bmal1-luciferase ([10]; mutant Bmal1 constructs (one or both DNA binding sites within REV-RE mutated)): approximately threefold
reduction of repression in mutant vs WT Bmal1 constructs ([10]; pRORE, dRORE or p/dRORE mutants vs WT, ***P < 0.001 by Student's t test): more than half

Molecule: B3
Kd [11]: 84000 nM

Molecule: B4
Kd [11]: 490 nM
Kd [12]: 2400 nM

Molecule: B5
Kd [13]: 130 nM

Molecule: B6
Kd [14]: 99 nM
